Laboratory results published in US6365126.

B1: Drosophila NF1 catalytic domain (amino acids 1,235-1,614) bacterial fusion protein (protein)
chain: TEFDTLAETVLADRFEQLVQLVTMISDKGELPIAMALANVVTTSQMDELARVLVTLFDAKHLLSPLLWNMFYREVEVSDCMQTLFRGNSLGSKIMAFCFKIYGASYLQMLLEPLIRPLLDEEEETCFEVDPARLDPTEDIEQHRNNLIALTQKVFDAIINSSDRFPPQLRSMCHCLYQVLSKRFPNLLQNNIGAVGTVIFLRFINPAIVSPQELGIVDKQVHSSAKRGLMLMSKILQNIANHVEFSKEQHMLCFNDFLRDHFEAGRRFFIQIASDCETVDQTSHSMSFISDANVLALHRLLWTHQEKIGDYLSSSRDHKAVGRRPFDKMATLLAYLGPPEHKPVDSHMMFSSYARWSSIDMSSTNFEEIMVKHQMHEKEE
B2: human p120GAP catalytic domain fusion protein (protein)
chain: MEKIMPEEEYSEFKELILQKELHVVYALSHVCGQDRTLLASILLRIFLHEKLESLLLCTLNDREISMEDEATTLFRATTLASTLMEQYMKATATQFVHHALKDSILKIMESKQSCELSPSKLEKNEDVNTNLTHLLNILSELVEKIFMASEILPPTLRYIYGCLQKSVQHKWPTNTTMRTRVVSGFVFLRLICPAILNPRMFNIISDSPSPIAARTLILVAKSVQNLANLVEFGAKEPYMEGVNPFIKSNKHRMIMFLDELGNVPELPDTTEHSRTDLSRDLAALHEICVAHSDELRTLSNERGAQQHVLKKLLAITELLQQKQNQYTKTNDVR

Target: H-Ras, P01112
Sequence (P01112 whole entry, looked up): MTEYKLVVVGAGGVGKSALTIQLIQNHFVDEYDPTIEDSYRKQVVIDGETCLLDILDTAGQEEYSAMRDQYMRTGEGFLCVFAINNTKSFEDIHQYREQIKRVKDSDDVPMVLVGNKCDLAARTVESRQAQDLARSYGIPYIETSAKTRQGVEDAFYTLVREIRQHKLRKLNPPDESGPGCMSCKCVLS

Row | Protein | GTPase activity of H-Ras (GAP assay)
1 | B1 | All three fusion proteins stimulated the GTPase activity of H-Ras
2 | B2 | All three fusion proteins stimulated the GTPase activity of H-Ras
